Measured values as given in patent publication EP1262190A1 (Takeda Chemical Industries, Ltd., dated 2001).
Where no end group is shown, it is not given here.

Key:
[1] = target: rat cerebellum-derived novel G protein-coupled receptor protein r0T7T022L (rat); experiment: cell-based or functional assay
human 0T7T022 receptor = human 0T7T022 receptor (human); experiment: cell-based or functional assay
human 0T7T022 receptor (human), sequence (Q9GZQ6 whole entry): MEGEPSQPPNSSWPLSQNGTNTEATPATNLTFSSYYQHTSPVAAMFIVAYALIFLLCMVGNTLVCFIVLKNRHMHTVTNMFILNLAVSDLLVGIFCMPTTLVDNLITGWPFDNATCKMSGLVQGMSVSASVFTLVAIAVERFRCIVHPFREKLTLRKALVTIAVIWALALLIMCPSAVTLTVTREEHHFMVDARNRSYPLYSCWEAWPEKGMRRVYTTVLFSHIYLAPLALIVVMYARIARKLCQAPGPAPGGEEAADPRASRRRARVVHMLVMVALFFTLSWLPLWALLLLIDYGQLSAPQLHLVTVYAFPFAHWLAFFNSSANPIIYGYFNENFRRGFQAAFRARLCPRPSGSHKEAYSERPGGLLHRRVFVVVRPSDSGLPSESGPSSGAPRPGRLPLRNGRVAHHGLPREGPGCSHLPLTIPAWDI

Row | Binder | IC50 of inhibiting the cAMP production (forskolin-stimulated) [1] | ED50, inhibition of the cAMP level increased by forskolin (human 0T7T022 receptor)
1 | NPFF [NPFF (peptide shown by Asn-Pro-Phe-Phe)] | – | 140 nM
2 | LPLRF-NH2 [LPLRFamide (peptide shown by Leu-Pro-Leu-Arg-Phe-NH2)] | – | 36 nM

More lines, now with the values ahead:

Row | IC50 of inhibiting the cAMP production (forskolin-stimulated) [1] | ED50, inhibition of the cAMP level increased by forskolin (human 0T7T022 receptor) | Binder
3 | 0.5 nM | 4.5 nM | MPHSFANLPLRF-NH2 [peptide MPHSFANLPLRFamide (Met-Pro-His-Ser-Phe-Ala-Asn-Leu-Pro-Leu-Arg-Phe-NH2)]
4 | – | ≥ 1000 nM | PQRF-NH2 [PQRFamide (peptide shown by Pro-Gln-Arg-Phe-NH2)]
